Test results: patent US20230136228A1 (LAMKAP BIO ALPHA, published 2023)

T1: shed soluble CEACAM5 (sCEA) (human, UniProt P06731 35-685, limits assumed)
T1 sequence (looked up): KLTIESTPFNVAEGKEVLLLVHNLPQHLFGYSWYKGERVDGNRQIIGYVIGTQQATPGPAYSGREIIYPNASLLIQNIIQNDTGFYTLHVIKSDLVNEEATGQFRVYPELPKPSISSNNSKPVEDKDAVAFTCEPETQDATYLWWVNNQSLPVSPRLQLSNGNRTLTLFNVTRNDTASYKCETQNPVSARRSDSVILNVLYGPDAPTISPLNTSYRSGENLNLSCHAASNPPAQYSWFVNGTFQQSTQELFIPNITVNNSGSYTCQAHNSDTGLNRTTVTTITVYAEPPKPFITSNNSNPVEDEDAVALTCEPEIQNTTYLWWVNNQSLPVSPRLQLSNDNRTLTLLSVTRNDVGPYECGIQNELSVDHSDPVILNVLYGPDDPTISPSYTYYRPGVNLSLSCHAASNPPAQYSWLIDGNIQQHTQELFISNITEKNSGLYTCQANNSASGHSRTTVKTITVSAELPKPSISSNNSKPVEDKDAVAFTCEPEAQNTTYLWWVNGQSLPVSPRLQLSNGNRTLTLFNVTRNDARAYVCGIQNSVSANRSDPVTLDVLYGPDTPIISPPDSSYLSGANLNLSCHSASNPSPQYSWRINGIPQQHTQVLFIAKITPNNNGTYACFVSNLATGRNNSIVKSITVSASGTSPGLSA

T2: human CEACAM4 (human, UniProt O75871 36-244)
T2 construct: whole, on cells
T2 sequence (looked up): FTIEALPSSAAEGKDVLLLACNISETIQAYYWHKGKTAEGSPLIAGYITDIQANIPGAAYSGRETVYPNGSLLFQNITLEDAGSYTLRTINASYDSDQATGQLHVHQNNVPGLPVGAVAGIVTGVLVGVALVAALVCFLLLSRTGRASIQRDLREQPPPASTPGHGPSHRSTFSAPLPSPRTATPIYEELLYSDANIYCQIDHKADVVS

T3: human CEACAM6 (human, UniProt P40199 35-320)
T3 construct: whole, on cells; also called CD66c
T3 sequence (looked up): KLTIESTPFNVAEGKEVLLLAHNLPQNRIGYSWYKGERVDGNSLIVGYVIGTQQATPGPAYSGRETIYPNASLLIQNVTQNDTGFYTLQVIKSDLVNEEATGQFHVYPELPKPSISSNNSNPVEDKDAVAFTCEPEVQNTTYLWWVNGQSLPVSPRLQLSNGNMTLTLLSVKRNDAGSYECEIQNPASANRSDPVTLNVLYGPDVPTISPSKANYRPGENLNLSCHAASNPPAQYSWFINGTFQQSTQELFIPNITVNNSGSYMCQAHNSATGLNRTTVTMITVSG

T4: human CEACAM3 (human, UniProt P40198 35-252)
T4 construct: whole, on cells
T4 sequence (looked up): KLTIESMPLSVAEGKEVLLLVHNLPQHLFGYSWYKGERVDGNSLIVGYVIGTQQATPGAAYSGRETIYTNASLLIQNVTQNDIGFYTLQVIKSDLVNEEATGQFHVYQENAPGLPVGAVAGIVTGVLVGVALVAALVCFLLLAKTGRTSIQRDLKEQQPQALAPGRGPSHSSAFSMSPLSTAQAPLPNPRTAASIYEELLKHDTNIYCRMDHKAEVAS

T5: human CEACAM8 (human, UniProt P31997 35-320)
T5 construct: whole, on cells
T5 sequence (looked up): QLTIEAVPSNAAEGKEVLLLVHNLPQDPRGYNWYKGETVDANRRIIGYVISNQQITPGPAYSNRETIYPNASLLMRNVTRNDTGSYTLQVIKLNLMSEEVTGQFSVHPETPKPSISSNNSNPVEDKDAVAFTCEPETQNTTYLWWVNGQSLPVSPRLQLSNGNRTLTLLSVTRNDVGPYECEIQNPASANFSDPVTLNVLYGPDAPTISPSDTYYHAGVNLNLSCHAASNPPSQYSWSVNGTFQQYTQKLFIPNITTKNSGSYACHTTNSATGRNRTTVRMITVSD


How the values were obtained:
[1] = biological target: T1, shed soluble CEACAM5 (sCEA); assay: cell-based or functional assay
human CEACAM4 = biological target: T2, human CEACAM4; assay: flow cytometry, MFI on transfected PEAK cells divided by MFI on WT PEAK cells
Experimental: (§1) Similarly, vectors encoding the full-length version of cyno CEACAM 5 and 6 are also used to express these proteins at the surface of PEAK and/or CHO cells. Non-transfected PEAK and/or CHO cells are used as negative control. Cells are harvested, counted, checked for viability and resuspended at 3×10⁶ cells/ml in FACS buffer (PBS 2% BSA, 0.1% NaN₃). 100 μl of the cell suspension are distributed in V-bottom 96-well plates (3×10⁵ cells/well). The supernatant is removed by centrifugation 3 minutes at 4° C., 1300 rpm and the cells incubated for 15 minutes at 4° C. with increasing concentrations of the antibody according to the invention. The antibodies carrying the anti-CEACAM5 arms to test are diluted in FACS buffer and the concentration range is 30 pM-500 nM. Cells are washed twice with cold FACS buffer and re-incubated for further 15 minutes at 4° C. with a compatible anti-human IgG secondary antibody. Cells are washed twice with cold FACS buffer and resuspended in 300 μl FACS buffer with 1:1500-diluted TOPRO-3 (Invitrogen). Fluorescence is measured using a FACSCalibur™ (BD Biosciences) or a Cytoflex Platform (Beckman Coulter). Dose-response binding curves are fitted using GraphPad Prism8 software. In the same manner, CEACAM1, CEACAM6 and other CEACAMs can be characterized.
(§2) For the bispecific antibodies AB17L3-1/N, AB71L3-1/N, AB72L3-1/N, AB73L3-1/N the MFI measured for binding to CEACAM5 transfected cells was found between 29000 and 41000 (Table 2). In contrast MFI found by using PEAK cells transfected with CEACAM 1,3,4,6,8 were found below 1000 with the only exception of a strong signal for AB72L3-1/N on CEACAM8 transfected cells. When MFI values obtained on transfected cells expressing any given CEACAM are divided by the values obtained on WT PEAK cells, “factors to PEAK WT” can be calculated (Table 3). With the exception of AB72L3-1/N, the antibodies of the invention are all specific to CEACAM5, as the “factor to PEAK WT” values are all below 2.0.

human CEACAM6 = biological target: T3, human CEACAM6; assay: as above
Experimental: as §1, §2

human CEACAM3 = biological target: T4, human CEACAM3; assay: as above
Experimental: as §1, §2

human CEACAM8 = biological target: T5, human CEACAM8; assay: as above
Experimental: as §1, §2

Binder	EC50 fold change compared to no shed CEA condition, sCEA 0 µg/mL (reference) [1]	EC50 fold change compared to no shed CEA condition, sCEA 0.2 µg/mL [1]	EC50 fold change compared to no shed CEA condition, sCEA 1 µg/mL [1]	EC50 fold change compared to no shed CEA condition, sCEA 5 µg/mL [1]	Factor to PEAK WT (human CEACAM4)	Factor to PEAK WT (human CEACAM6)	Factor to PEAK WT (human CEACAM3)	Factor to PEAK WT (human CEACAM8)
AB72L3-1/N (bispecific antibody, human IgG1, kappa, lambda, L234A L235A, Kappa-lambda body, lead optimization wave 2) heavy: EVQLVESGGGLVQPGGSLKLSCAASGFTFNTYAMNWVRQAPGKGLEWVGRIRSKYNNYATYYADSVKDRFTISRDDSKNTAYLQMNSLKTEDTAVYYCVRHGNFGNSYVSWFAYWGQGTLVTVSSASTKGPSVFPLAPSSKSTSGGTAALGCLVKDYFPEPVTVSWNSGALTSGVHTFPAVLQSSGLYSLSSVVTVPSSSLGTQTYICNVNHKPSNTKVDKRVEPKSCDKTHTCPPCPAPEAAGGPSVFLFPPKPKDTLMISRTPEVTCVVVDVSHEDPEVKFNWYVDGVEVHNAKTKPREEQYNSTYRVVSVLTVLHQDWLNGKEYKCKVSNKALAAPIEKTISKAKGQPREPQVYTLPPSREEMTKNQVSLTCLVKGFYPSDIAVEWESNGQPENNYKTTPPVLDSDGSFFLYSKLTVDKSRWQQGNVFSCSVMHEALHNHYTQKSLSLSPG light 1: EIVLTQSPATLSLSPGERATLSCRASQSVNSNLNWYQQKPGQAPRLLIYHSTNRPRGIPARFSGSGSGTDFTLTISSLEPEDFAVYYCQQFDYFKEYNTFGQGTKVEIKRTVAAPSVFIFPPSDEQLKSGTASVVCLLNNFYPREAKVQWKVDNALQSGNSQESVTEQDSKDSTYSLSSTLTLSKADYEKHKVYACEVTHQGLSSPVTKSFNRGEC light 2: QTVVTQEPSLTVSPGGTVTLTCRSSTGAVTTSNYANWFQQKPGQAPRGLIGGTNKRAPGTPARFSGSLLGGKAALTLSGAQPEDEAEYYCALWYKQRWVFGGGTKLTVLGQPKAAPSVTLFPPSSEELQANKATLVCLISDFYPGAVTVAWKADSSPVKAGVETTTPSKQSNNKYAASSYLSLTPEQWKSHRSYSCQVTHEGSTVEKTVAPTECS	1 fold	1.2 fold	2.4 fold	7.3 fold	0.8 fold	1.2 fold	1 fold	13.1 fold
AB73L3-1/N (bispecific antibody, human IgG1, kappa, lambda, L234A L235A, Kappa-lambda body, lead optimization wave 2) heavy: EVQLVESGGGLVQPGGSLKLSCAASGFTFNTYAMNWVRQAPGKGLEWVGRIRSKYNNYATYYADSVKDRFTISRDDSKNTAYLQMNSLKTEDTAVYYCVRHGNFGNSYVSWFAYWGQGTLVTVSSASTKGPSVFPLAPSSKSTSGGTAALGCLVKDYFPEPVTVSWNSGALTSGVHTFPAVLQSSGLYSLSSVVTVPSSSLGTQTYICNVNHKPSNTKVDKRVEPKSCDKTHTCPPCPAPEAAGGPSVFLFPPKPKDTLMISRTPEVTCVVVDVSHEDPEVKFNWYVDGVEVHNAKTKPREEQYNSTYRVVSVLTVLHQDWLNGKEYKCKVSNKALAAPIEKTISKAKGQPREPQVYTLPPSREEMTKNQVSLTCLVKGFYPSDIAVEWESNGQPENNYKTTPPVLDSDGSFFLYSKLTVDKSRWQQGNVFSCSVMHEALHNHYTQKSLSLSPG light 1: EIVLTQSPATLSLSPGERATLSCRASQSVNSNLNWYQQKPGQAPRLLIYHSNNRPHGIPARFSGSGSGTDFTLTISSLEPEDFAVYYCQQFDYFREYNTFGQGTKVEIKRTVAAPSVFIFPPSDEQLKSGTASVVCLLNNFYPREAKVQWKVDNALQSGNSQESVTEQDSKDSTYSLSSTLTLSKADYEKHKVYACEVTHQGLSSPVTKSFNRGEC light 2: QTVVTQEPSLTVSPGGTVTLTCRSSTGAVTTSNYANWFQQKPGQAPRGLIGGTNKRAPGTPARFSGSLLGGKAALTLSGAQPEDEAEYYCALWYKQRWVFGGGTKLTVLGQPKAAPSVTLFPPSSEELQANKATLVCLISDFYPGAVTVAWKADSSPVKAGVETTTPSKQSNNKYAASSYLSLTPEQWKSHRSYSCQVTHEGSTVEKTVAPTECS	1 fold	0.8 fold	2.9 fold	7.4 fold	0.7 fold	1 fold	0.9 fold	0.8 fold
